In patent US20240131162A1 (MacroGenics, published 2024):
Where a chain is given by its changes, count along the chain named. Names and notes keep the numbering of the source.

T1: CD32B (FcγRII-B) (UniProt P31994 43-217, limits assumed)
T1 sequence (looked up): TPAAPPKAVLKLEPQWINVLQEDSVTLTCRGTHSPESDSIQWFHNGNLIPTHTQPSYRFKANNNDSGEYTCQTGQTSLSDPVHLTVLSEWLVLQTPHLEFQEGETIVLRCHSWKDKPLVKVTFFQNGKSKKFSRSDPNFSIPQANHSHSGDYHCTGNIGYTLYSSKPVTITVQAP

T2: CD32A^H (UniProt P12318 34-217, limits assumed)
T2 construct: also called FcγRIIA
T2 sequence (looked up): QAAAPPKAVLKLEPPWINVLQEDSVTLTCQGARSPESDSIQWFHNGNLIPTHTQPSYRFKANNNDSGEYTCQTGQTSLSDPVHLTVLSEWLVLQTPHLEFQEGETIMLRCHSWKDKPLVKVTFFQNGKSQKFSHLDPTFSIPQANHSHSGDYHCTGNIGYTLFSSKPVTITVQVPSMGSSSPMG

B1: Fc variant F243L P247L N421K (other, UniProt P01857-1 104-330, looked up)
chain: DKTHTCPPCPAPELLGGPSVFLLPPKLKDTLMISRTPEVTCVVVDVSHEDPEVKFNWYVDGVEVHNAKTKPREEQYNSTYRVVSVLTVLHQDWLNGKEYKCKVSNKALPAPIEKTISKAKGQPREPQVYTLPPSRDELTKNQVSLTCLVKGFYPSDIAVEWESNGQPENNYKTTPPVLDSDGSFFLYSKLTVDKSRWQQGKVFSCSVMHEALHNHYTQKSLSLSPGK
notes: domain: Fc
B2: Fc mutant 16: F243L R292P Y300L P396L (other, UniProt P01857-1 104-330, looked up)
chain: B1 chain with L27P, R72P, Y80L, P176L, K201N
notes: domain: Fc
B3: Fc variant R255L D270E P396L (other, UniProt P01857-1 104-330, looked up)
chain: B1 chain with L23F, L27P, R35L, D50E, P176L, K201N
notes: domain: Fc
B4: Fc variant D270E P396L G316D R416G (other, UniProt P01857-1 104-330, looked up)
chain: B1 chain with L23F, L27P, D50E, G96D, P176L, R196G, K201N
notes: domain: Fc; also called D270E G316D P396L R416G
B5: Fc mutant 15: R292P V305I P396L (other, UniProt P01857-1 104-330, looked up)
chain: B1 chain with L23F, L27P, R72P, V85I, P176L, K201N
notes: domain: Fc
B6: Fc mutant 13: F243L R292P V305I (other, UniProt P01857-1 104-330, looked up)
chain: B1 chain with L27P, R72P, V85I, K201N
notes: domain: Fc
B7: Fc mutant 17: F243L R292P V305I P396L (other, UniProt P01857-1 104-330, looked up)
chain: B1 chain with L27P, R72P, V85I, P176L, K201N
notes: domain: Fc
B8: Fc variant P247L D270E N421K (other, UniProt P01857-1 104-330, looked up)
chain: B1 chain with L23F, D50E
notes: domain: Fc
B9: Fc variant F243L P247L D270E N421K (other, UniProt P01857-1 104-330, looked up)
chain: B1 chain with D50E
notes: domain: Fc
B10: Fc mutant 18: F243L R292P Y300L V305I P396L (other, UniProt P01857-1 104-330, looked up)
chain: B1 chain with L27P, R72P, Y80L, V85I, P176L, K201N
notes: domain: Fc; Same substitutions as the Fc of ch4D5-FcMT1
B11: Fc variant F243L D270E K392T P396L (other, UniProt P01857-1 104-330, looked up)
chain: B1 chain with L27P, D50E, K172T, P176L, K201N
notes: domain: Fc
B12: Fc variant F243L D270E P396L Q419H (other, UniProt P01857-1 104-330, looked up)
chain: B1 chain with L27P, D50E, P176L, Q199H, K201N
notes: domain: Fc
B13: Fc variant F243L R255L D270E P396L (other, UniProt P01857-1 104-330, looked up)
chain: B1 chain with L27P, R35L, D50E, P176L, K201N
notes: domain: Fc
B14: Fc variant D270E G316D R416G (other, UniProt P01857-1 104-330, looked up)
chain: B1 chain with L23F, L27P, D50E, G96D, R196G, K201N
notes: domain: Fc
B15: Fc variant D270E K392T P396L (other, UniProt P01857-1 104-330, looked up)
chain: B1 chain with L23F, L27P, D50E, K172T, P176L, K201N
notes: domain: Fc
B16: Fc variant R255L D270E Y300L P396L (other, UniProt P01857-1 104-330, looked up)
chain: B1 chain with L23F, L27P, R35L, D50E, Y80L, P176L, K201N
notes: domain: Fc
B17: Fc variant F243L D270E G316D R416G (other, UniProt P01857-1 104-330, looked up)
chain: B1 chain with L27P, D50E, G96D, R196G, K201N
notes: domain: Fc
B18: Fc variant F243I R292P Y300L V305I P396L (other, UniProt P01857-1 104-330, looked up)
chain: B1 chain with L23I, L27P, R72P, Y80L, V85I, P176L, K201N
notes: domain: Fc; 'F243I' as printed
B19: Fc variant D270E P396L Q419H (other, UniProt P01857-1 104-330, looked up)
chain: B1 chain with L23F, L27P, D50E, P176L, Q199H, K201N
notes: domain: Fc
B20: Fc variant R255L D270E R292G P396L (other, UniProt P01857-1 104-330, looked up)
chain: B1 chain with L23F, L27P, R35L, D50E, R72G, P176L, K201N
notes: domain: Fc
B21: Fc mutant 12: F243L R292P Y300L (other, UniProt P01857-1 104-330, looked up)
chain: B1 chain with L27P, R72P, Y80L, K201N
notes: domain: Fc
B22: Fc mutant 14: F243L R292P P396L (other, UniProt P01857-1 104-330, looked up)
chain: B1 chain with L27P, R72P, P176L, K201N
notes: domain: Fc

Biological target: T3, CD16A F158 (human, UniProt P08637 17-208, limits assumed)
T3 construct: construct not described
T3 sequence (P08637 17-208 limits assumed): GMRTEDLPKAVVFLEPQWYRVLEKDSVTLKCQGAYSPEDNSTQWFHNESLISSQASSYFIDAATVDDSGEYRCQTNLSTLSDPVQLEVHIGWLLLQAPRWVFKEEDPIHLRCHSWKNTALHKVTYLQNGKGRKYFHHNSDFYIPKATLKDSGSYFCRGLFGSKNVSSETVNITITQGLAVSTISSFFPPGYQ
Assay: method not stated at Table 3

First: B1
Second: B2
The “binding relative to wild-type Fc” value of the first is lower: 1.71 fold for the first, 5.62 fold for the second.

First: B3
Second: B4
The “binding relative to wild-type Fc” value of the first is higher: 1.65 fold for the first, 0.94 fold for the second.

Compared with B5, B6 is lower in “binding relative to wild-type Fc” value: 1.9 fold for the first, 1.43 fold for the second.

Compared with B7, B8 is lower in “binding relative to wild-type Fc” value: 2.53 fold for the first, 2.46 fold for the second.

Going from B9 to B10, the “binding relative to wild-type Fc” value rises from 3.45 fold to 8.25 fold.

Going from B11 to B12, the “binding relative to wild-type Fc” value falls from 2.44 fold to 1.15 fold.

First: B13
Second: B14
The “binding relative to wild-type Fc” value of the first is lower: 1.64 fold for the first, 2.49 fold for the second.

Compared with B15, B16 is lower in “binding relative to wild-type Fc” value: 2.28 fold for the first, 1.74 fold for the second.

Going from B17 to B18, the “binding relative to wild-type Fc” value rises from 1.34 fold to 3.12 fold.

Biological target: T1, CD32B (FcγRII-B)
Assay: method not stated at Table 3

Going from B1 to B2, the “binding relative to wild-type Fc” value rises from 0.17 fold to 1.07 fold.

Going from B3 to B4, the “binding relative to wild-type Fc” value rises from 0.87 fold to 1.07 fold.

First: B5
Second: B19
The “binding relative to wild-type Fc” value of the first is higher: 0.92 fold for the first, 0.68 fold for the second.

Compared with B7, B8 is higher in “binding relative to wild-type Fc” value: 0.4 fold for the first, 0.58 fold for the second.

First: B9
Second: B20
The “binding relative to wild-type Fc” value of the first is lower: 0.32 fold for the first, 0.65 fold for the second.

Going from B10 to B11, the “binding relative to wild-type Fc” value falls from 1.38 fold to 0.44 fold.

First: B12
Second: B13
The “binding relative to wild-type Fc” value of the first is lower: 0.26 fold for the first, 0.38 fold for the second.

Going from B14 to B15, the “binding relative to wild-type Fc” value rises from 0.78 fold to 0.79 fold.

Going from B16 to B17, the “binding relative to wild-type Fc” value falls from 0.87 fold to 0.2 fold.

With B18 the “binding relative to wild-type Fc” value was 1.05 fold.

Biological target: T4, CD16A V158 (human, UniProt P08637 17-208, limits assumed)
T4 construct: construct not described
T4 sequence (P08637 17-208 F176V limits assumed): as the sequence (P08637 17-208 limits assumed) above, with F160V counted along it
Assay: method not stated at Table 3

Compared with B1, B2 is higher in “binding relative to wild-type Fc” value: 1.89 fold for the first, 10.1 fold for the second.

Going from B3 to B4, the “binding relative to wild-type Fc” value falls from 1.34 fold to 1.22 fold.

First: B5
Second: B19
The “binding relative to wild-type Fc” value of the first is higher: 1.85 fold for the first, 1.64 fold for the second.

Going from B6 to B7, the “binding relative to wild-type Fc” value rises from 2.56 fold to 5.37 fold.

Compared with B8, B9 is higher in “binding relative to wild-type Fc” value: 1.89 fold for the first, 2.3 fold for the second.

Compared with B10, B11 is lower in “binding relative to wild-type Fc” value: 10.1 fold for the first, 3.16 fold for the second.

Compared with B12, B13 is higher in “binding relative to wild-type Fc” value: 1.46 fold for the first, 1.75 fold for the second.

Going from B14 to B15, the “binding relative to wild-type Fc” value falls from 2.18 fold to 1.81 fold.

Going from B16 to B17, the “binding relative to wild-type Fc” value falls from 1.52 fold to 1.5 fold.

Biological target: T3, CD16A F158
Assay: SPR (BIAcore), koff compared with wild-type Fc

Compared with B21, B2 is higher in WT koff/mutant koff: 4.6 ratio for the first, 5.6 ratio for the second.

Compared with B5, B6 is lower in WT koff/mutant koff: 1.9 ratio for the first, 1.4 ratio for the second.

Compared with B7, B10 is higher in WT koff/mutant koff: 2.3 ratio for the first, 8.3 ratio for the second.

Biological target: T2, CD32A^H
Assay: SPR (BIAcore), koff compared with wild-type Fc

Compared with B21, B22 is higher in WT koff/mutant koff: 1 ratio for the first, 1.4 ratio for the second.

First: B2
Second: B5
The WT koff/mutant koff of the first is higher: 1.7 ratio for the first, 1.5 ratio for the second.

Compared with B6, B7 is higher in WT koff/mutant koff: 0.2 ratio for the first, 0.8 ratio for the second.

B10 showed a WT koff/mutant koff of 3.2 ratio.

Biological target: T1, CD32B (FcγRII-B)
Assay: SPR (BIAcore), koff compared with wild-type Fc

Going from B21 to B22, the WT koff/mutant koff falls from 0.6 ratio to 0.4 ratio.

First: B2
Second: B5
The WT koff/mutant koff of the first is higher: 1.1 ratio for the first, 0.9 ratio for the second.

Going from B6 to B7, the WT koff/mutant koff rises from 0.1 ratio to 0.4 ratio.

For B10, the WT koff/mutant koff was 1.4 ratio.

Biological target: T4, CD16A V158
Assay: SPR (BIAcore), koff compared with wild-type Fc

Going from B21 to B22, the WT koff/mutant koff falls from 7.4 ratio to 6.3 ratio.

First: B2
Second: B5
The WT koff/mutant koff of the first is higher: 10.1 ratio for the first, 1.9 ratio for the second.

Compared with B6, B7 is higher in WT koff/mutant koff: 2.6 ratio for the first, 4 ratio for the second.

B10 was tested, and the WT koff/mutant koff was 10.1 ratio.
